Experimental data reported in publication PMC12476982.

How the values were obtained:
Assay in all cases: fluorescence polarization
Settings in all cases: FP: 10 nM Cy5 nucleosome in Buffer B (composition not in material) except 60 mM NaCl, quadratic fit, EMSA: 15 nM nucleosome, 15 min, room …
PBAF (human) = system: PBAF (human)
ncBAF (human) = system: ncBAF (human)
cBAF (ARID1A) (human) = system: cBAF (ARID1A) (human)
BRG1 (human) = system: BRG1 (human)

## Cy5 mononucleosome, 197-bp 601 DNA
PBAF (human)
  Kd: 82 nM
ncBAF (human)
  Kd: 17 nM
cBAF (ARID1A) (human)
  Kd: 45 nM
BRG1 (human)
  Kd: 115 nM
